Data taken from patent US20240209095A1 (DEVELOPMENT CENTER FOR BIOTECHNOLOGY, published 2024).
Changes are numbered by the printed parent chain.

B1: mouse hybridoma anti-human PD-L1 antibody 1G8 (antibody, V domains shown)
VH: QVQLQESGPGLAKPSQTLSLTCSVTGYSITSDYWNWIRKFPGNKLEFMGYISYTGSTYYNPSLKSRISITRDTSKNQYYLQLNSVTTEDTATYYCARRGEWLSPFAYWGQGTLVTVSA
VL: DIVMSQSPSSLGVSVGEKITMSCKSSQSLLYSSNQKNSLAWYQQKPGQSPKLLIYWASTRESGVPDRFTGSGSGTDFTLTISSVKSEDLAVYYCQQYYTYPFTFGAGTNLELK
notes: Mouse monoclonal antibody from hybridoma, detected with goat anti-mouse IgG; also called mAb 1G8; mouse clone 1G8
B2: mouse hybridoma anti-human PD-L1 antibody 3C3 (antibody, V domains shown)
VH: B1 VH with Q1E, A12T, N35D, F47Y, K64R, N83S, T87S, T90S, E100G, A106V
VL: B1 VL with I2T, K18R, I19V, M21L, S22T, S26R, Y31F, N109S
notes: Mouse monoclonal antibody from hybridoma, detected with goat anti-mouse IgG; also called mAb 3C3; mouse clone 3C3
B3: 3C3 humanized antibody HuB2Hu (antibody, V domains shown)
VH: EVQLQESGPGLVKPSQTLSLTCTVSGYSITSDYWDWIRKPPGKGLEYMGYISYTGSTYYNPSLRSRITISRDTSKNQYSLKLSSVTAADTAVYYCARRGGWLSPFVYWGQGTLVTVSS
VL: DIQMTQSPSSLSASVGDRVTITCKSRQSLLFSSNQKNSLAWYQQKPGKAPKLLIYWASTRESGVPSRFSGSGSGTDFTLTISSLQPEDFATYYCQQYYTYPFTFGQGTKLEIK
notes: Human IgG, kappa, from pTCAED vectors; also called 3C3-HuB2Hu; 3C3 HuB2Hu
B4: 3C3 humanized antibody HuB2Hu0 (antibody, V domains shown)
VH: B3 VH
VL: DIVMTQSPDSLAVSLGERATINCKSRQSLLFSSNQKNSLAWYQQKPGQPPKLLIYWASTRESGVPDRFSGSGSGTDFTLTISSLQAEDVAVYYCQQYYTYPFTFGQGTKLEIK
notes: Human IgG, kappa, from pTCAED vectors; also called 3C3-HuB2Hu0; 3C3 HuB2Hu0
B5: 3C3 humanized antibody HuB2Hu2 (antibody, V domains shown)
VH: B3 VH
VL: DIVMTQTPLSLSVTPGQPASISCKSRQSLLFSSNQKNSLAWYLQKPGQSPQLLIYWASTRESGVPDRFSGSGSGTDFTLKISRVEAEDVGVYYCQQYYTYPFTFGQGTKLEIK
notes: Human IgG, kappa, from pTCAED vectors; also called 3C3-HuB2Hu2; 3C3 HuB2Hu2
B6: 1G8 humanized antibody HuB2Hu2 (antibody, V domains shown)
VH: B3 VH with D35N, R64K, G100E, V106A
VL: B5 VL with R26S, F31Y
notes: Human IgG, kappa, from pTCAED vectors; also called 1G8 HuB2Hu2
B7: 1G8 humanized antibody HuB2Hu (antibody, V domains shown)
VH: B3 VH with D35N, R64K, G100E, V106A
VL: B3 VL with R26S, F31Y
notes: Human IgG, kappa, from pTCAED vectors; also called 1G8 HuB2Hu
B8: 1G8 humanized antibody HuHu0 (antibody, V domains shown)
VH: QVQLQESGPGLVKPSQTLSLTCTVSGYSITSDYWNWIRQPPGKGLEWIGYISYTGSTYYNPSLKSRVTISVDTSKNQFSLKLSSVTAADTAVYYCARRGEWLSPFAYWGQGTLVTVSS
VL: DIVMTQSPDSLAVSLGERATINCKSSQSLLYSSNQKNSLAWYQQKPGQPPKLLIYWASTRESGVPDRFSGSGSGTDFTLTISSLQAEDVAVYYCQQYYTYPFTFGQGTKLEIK
notes: Human IgG, kappa, from pTCAED vectors; also called 1G8 HuHu0
B9: 1G8 humanized antibody HuHu (antibody, V domains shown)
VH: B8 VH
VL: B3 VL with R26S, F31Y
notes: Human IgG, kappa, from pTCAED vectors; also called 1G8 HuHu
B10: 1G8 humanized antibody HuB2Hu0 (antibody, V domains shown)
VH: B3 VH with D35N, R64K, G100E, V106A
VL: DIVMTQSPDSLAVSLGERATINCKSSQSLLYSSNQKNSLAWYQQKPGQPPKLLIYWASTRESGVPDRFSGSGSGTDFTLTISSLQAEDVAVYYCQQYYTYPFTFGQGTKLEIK
notes: Human IgG, kappa, from pTCAED vectors; also called 1G8 HuB2Hu0
B11: 1G8 humanized antibody HuHu2 (antibody, V domains shown)
VH: B8 VH
VL: B5 VL with R26S, F31Y
notes: Human IgG, kappa, from pTCAED vectors; also called 1G8 HuHu2
B12: 3C3 heavy chain Hu-B1 / light chain Hu0 (antibody, V domains shown)
VH: B3 VH with K39Q, Y47W
VL: B4 VL
notes: Human IgG, kappa, from pTCAED vectors; tested as culture supernatant
B13: 3C3 heavy chain Hu-B1 / light chain Hu (antibody, V domains shown)
VH: B3 VH with K39Q, Y47W
VL: B3 VL
notes: as for B12
B14: 3C3 heavy chain Hu-B1 / light chain Hu2 (antibody, V domains shown)
VH: B3 VH with K39Q, Y47W
VL: B5 VL
notes: as for B12
B15: 3C3 humanized antibody HuHu0 (antibody, V domains shown)
VH: B8 VH with N35D, K64R, E100G, A106V
VL: B4 VL
notes: Human IgG, kappa, from pTCAED vectors; also called 3C3 heavy chain Hu / light chain Hu0
B16: 3C3 heavy chain M / light chain Hu2 (antibody, V domains shown)
VH: B1 VH with Q1E, A12T, N35D, F47Y, K64R, N83S, T87S, T90S, E100G, A106V
VL: B5 VL
notes: as for B12
B17: 3C3 heavy chain M / light chain Hu0 (antibody, V domains shown)
VH: B1 VH with Q1E, A12T, N35D, F47Y, K64R, N83S, T87S, T90S, E100G, A106V
VL: B4 VL
notes: as for B12
B18: 3C3 heavy chain Hu-B1 / light chain M (antibody, V domains shown)
VH: B3 VH with K39Q, Y47W
VL: B1 VL with I2T, K18R, I19V, M21L, S22T, S26R, Y31F, N109S
notes: as for B12
B19: 3C3 heavy chain M / light chain Hu (antibody, V domains shown)
VH: B1 VH with Q1E, A12T, N35D, F47Y, K64R, N83S, T87S, T90S, E100G, A106V
VL: B3 VL
notes: as for B12
B20: mouse-human chimera 3C3 MM (antibody, V domains shown)
VH: B1 VH with Q1E, A12T, N35D, F47Y, K64R, N83S, T87S, T90S, E100G, A106V
VL: B1 VL with I2T, K18R, I19V, M21L, S22T, S26R, Y31F, N109S
notes: Variable regions in human chimera antibody expression vectors pTCAED heavy and light; human IgG, kappa (detected with anti-human Kappa); also called 3C3 heavy chain M / light chain M; chimera PD-L1
B21: 3C3 heavy chain Hu / light chain M (antibody, V domains shown)
VH: B8 VH with N35D, K64R, E100G, A106V
VL: B1 VL with I2T, K18R, I19V, M21L, S22T, S26R, Y31F, N109S
notes: as for B12
B22: 3C3 heavy chain Hu-B2 / light chain M (antibody, V domains shown)
VH: B3 VH
VL: B1 VL with I2T, K18R, I19V, M21L, S22T, S26R, Y31F, N109S
notes: as for B12

Molecular target: T1, human PD-L1 expressed on cells (HCC827 cells; PD-L1 aAPC/CHO-K1 cells) (human, UniProt Q9NZQ7 19-290)
Experiment: cell-based or functional assay

T1 sequence (Q9NZQ7 19-290): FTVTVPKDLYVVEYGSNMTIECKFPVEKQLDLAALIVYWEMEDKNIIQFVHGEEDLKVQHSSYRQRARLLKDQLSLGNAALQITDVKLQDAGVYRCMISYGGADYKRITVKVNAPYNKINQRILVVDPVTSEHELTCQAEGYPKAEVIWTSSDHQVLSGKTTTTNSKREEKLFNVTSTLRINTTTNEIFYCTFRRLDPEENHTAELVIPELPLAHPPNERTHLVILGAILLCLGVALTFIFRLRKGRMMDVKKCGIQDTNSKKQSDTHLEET

Luc repoter EC50 [nM] | Binder
0.62 | B1
0.58 | B2

Molecular target: T1, human PD-L1 expressed on cells (HCC827 …)
Experiment: cell-based or functional assay
Remark: another data set of the same source

PD1/PD-L1 Blockade Reporter Assay EC50 [nM] | Binder
0.62 | B1
0.582 | B2

Molecular target: T1, human PD-L1 expressed on cells (HCC827 …)
Experiment: cell-based or functional assay
Remark: another data set of the same source

3C3 humanized antibodies Blockade Reporter Assay EC50 [nM] | Binder
0.441 | B3
0.477 | B4
0.409 | B5

Molecular target: T2, human PD-L1 (coated on ELISA plate) (human, UniProt Q9NZQ7 19-238, limits assumed)
T2 construct: construct not described; also called CD274; B7 homolog 1
Experiment: ELISA, PD-L1 coated 0.1 µg/well, goat anti-mouse IgG-HRP
Experimental: Briefly, PD-L1 was coated on a 96-well ELISA plate (0.1 μg/well). After binding of anti-PD-L1 antibodies, a goat anti mouse IgG conjugated with horse radish peroxidase (HRP) was used as a second antibody and 3,3′,5,5′-Tetramethylbenzidine (TMB) was used as a substrate to assess the antibody-PD-L1 bindings. The OD405 was read to calculate the activities.

T2 sequence (Q9NZQ7 19-238 limits assumed): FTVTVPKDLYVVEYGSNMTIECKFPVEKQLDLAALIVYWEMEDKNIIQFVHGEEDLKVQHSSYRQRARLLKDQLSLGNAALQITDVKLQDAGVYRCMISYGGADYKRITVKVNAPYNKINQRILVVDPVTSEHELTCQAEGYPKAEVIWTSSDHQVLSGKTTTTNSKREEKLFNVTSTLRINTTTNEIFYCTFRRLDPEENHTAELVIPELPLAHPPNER

Kd [nM] | Binder
0.0435 | B1
0.0356 | B2

Molecular target: T3, PDL1-hFc (UniProt Q9NZQ7 19-238)
T3 construct: Coated at 1 µg/ml in the ELISAs of the chimeric and humanized antibodies; construct not described
Experiment: ELISA titration on PDL1-hFc, KD compared with parental 3C3 (FIG. 10)
Experimental: (§1) ELISA plates were coating with PDL1-hFc 1 ug/ml and blocked by 5% milk PBS, then add assay antibodies form 45 nM to 2.7×10⁻³ nM dilute (4× fold dilution). Assay will measured by add goat anti-human KAPPA HRP IgG 1:4000 and binding curve and KD was determined by GraphPad Prism software using One site-specific binding for none linear fit methods.

T3 sequence (Q9NZQ7 19-238): as the sequence (Q9NZQ7 19-238 limits assumed) above

fold affinity loss against parental mouse clone 3C3 [fold] | Binder
< 2 | B3
< 2 | B4
< 2 | B5

Molecular target: T3, PDL1-hFc
Experiment: ELISA titration on PDL1-hFc 1 ug/ml, 45 nM to 2.7×10^-3 nM, one site-specific binding fit
Experimental: as §1

Kd [nM] | Binder
0.0936 | B3
0.108 | B6
0.108 | B4
0.101 | B5
0.248 | B7
3.99 | B8
3.24 | B9
0.238 | B10
9.68 | B11

Molecular target: T3, PDL1-hFc
Experiment: ELISA, PDL1-hFc coated 1 µg/ml, antibody supernatant at 300 ng/ml, anti-human Kappa HRP
Experimental: The binding activity of humanized antibodies could be efficiently compared by all combination of heavy chains and light chains using mini scale antibody expression. The concentration of antibodies in culture supernatant was determent by anti-human IgG ELISA. For PDL1 ELISA, plates were coating with PDL1-hFc 1 μg/ml and blocked by 5% milk PBS. Assay antibodies were adjusted to 300 ng/ml, 100 μl/well. Anti-PDL1 signals were measured by secondary goat anti-human Kappa HRP IgG 1:4000 and color developed by TMB substrates (KPL). Optical absorption value was measured at OD450-655 nm by Bio-Rad ELISA reader.

OD450-650 nM, 300 ng/ml PDL1 binding [OD] | Binder
0.539 | B12
0.455 | B13
0.349 | B14
1.35 | B3
0.15 | B15
1.13 | B4
1.05 | B5
1.55 | B16
1.58 | B17
0.61 | B18
1.85 | B19
1.52 | B20
0.25 | B21
1.2 | B22
